# Laboratory results reported in doi:10.1101/2025.11.27.691040 (bioRxiv, 2025).
# T1: AtCKA1 (residues 76-409) with C-terminal 6xHis tag (Arabidopsis thaliana, UniProt Q08467 76-409)
# T1 sequence (looked up): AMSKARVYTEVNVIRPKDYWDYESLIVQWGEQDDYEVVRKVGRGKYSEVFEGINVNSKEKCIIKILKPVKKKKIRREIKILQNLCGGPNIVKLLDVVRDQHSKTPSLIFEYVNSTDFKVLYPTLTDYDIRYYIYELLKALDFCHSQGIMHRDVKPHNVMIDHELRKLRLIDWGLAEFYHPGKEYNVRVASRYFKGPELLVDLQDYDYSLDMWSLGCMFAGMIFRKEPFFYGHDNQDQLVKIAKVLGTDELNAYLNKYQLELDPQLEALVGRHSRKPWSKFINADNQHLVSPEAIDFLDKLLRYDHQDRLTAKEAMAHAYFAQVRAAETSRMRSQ
# Target: T1, AtCKA1 (residues 76-409) with …
# Assay: SEC-MALS
binder,measurement,value
"AtCKB1 (residues 95-287), untagged (domain or fragment, Arabidopsis thaliana, UniProt P40228 95-287, looked up) DGEDTSWISWFCNLRGNEFFCEVDDDYIQDDFNLCGLSSLVPYYEYALDLILDVESSQGEMFTEEQNELIESAAEMLYGLIHARYILTSKGLAAMLDKYKNYDFGRCPRVYCCGQPCLPVGQSDLPRSSTVKIYCPKCEDIYYPRSKYQGNIDGAYFGTTFPHLFLMTYGHLKPAKATQNYVQRVFGFKLHKP",stoichiometry N,"1 β per α (2:2, α2β2)"
